Consider two molecules from article PMC4022879, “Interactions Outside the Proteinase-binding Loop Contribute Significantly to the Inhibition of Activated Coagulation Factor XII by Its Canonical Inhibitor from Corn*^([image sbox.jpg])” (The Journal of Biological Chemistry, 2014).

The target of this experiment is activated coagulation factor XI (FXIa) (Activated two-chain form, cleaved after residue 387 (precursor numbering). Heavy and light chains are disulfide-linked, and the whole is a disulfide-linked homodimer; N-glycosylated. The commercial fu). The experiment can be described thus: chromogenic enzyme inhibition assay; 200 pM FXIa, 500 μM S2366, 37 °C, 110 mM Tris-HCl pH 8.0, 250 mM NaCl, 1% BSA; residual activity in triplicate at at least six inhibitor concentrations; Ki from a linear fit of 1/v against inhibitor concentration. Conditions: both partners purified.
Sequence of activated coagulation factor XI (FXIa) (Activated two-chain form, cleaved after residue 387 (precursor numbering). Heavy and light chains are disulfide-linked, and the whole is a disulfide-linked homodimer; N-glycosylated. The commercial fu) (chain, as listed by the source, chain 1 of 2): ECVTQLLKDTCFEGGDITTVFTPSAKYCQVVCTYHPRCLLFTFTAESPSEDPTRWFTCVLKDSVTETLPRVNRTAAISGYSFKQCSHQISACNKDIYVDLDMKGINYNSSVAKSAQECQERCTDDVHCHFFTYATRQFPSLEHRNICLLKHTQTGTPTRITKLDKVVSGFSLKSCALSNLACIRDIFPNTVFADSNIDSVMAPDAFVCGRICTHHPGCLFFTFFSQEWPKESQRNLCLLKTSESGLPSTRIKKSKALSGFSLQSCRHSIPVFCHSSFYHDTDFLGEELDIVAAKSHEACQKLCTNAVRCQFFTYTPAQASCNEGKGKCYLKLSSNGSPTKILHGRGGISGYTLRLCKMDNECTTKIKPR
Sequence of activated coagulation factor XI (FXIa) (Activated two-chain form, cleaved after residue 387 (precursor numbering). Heavy and light chains are disulfide-linked, and the whole is a disulfide-linked homodimer; N-glycosylated. The commercial fu) (chain, as listed by the source, chain 2 of 2): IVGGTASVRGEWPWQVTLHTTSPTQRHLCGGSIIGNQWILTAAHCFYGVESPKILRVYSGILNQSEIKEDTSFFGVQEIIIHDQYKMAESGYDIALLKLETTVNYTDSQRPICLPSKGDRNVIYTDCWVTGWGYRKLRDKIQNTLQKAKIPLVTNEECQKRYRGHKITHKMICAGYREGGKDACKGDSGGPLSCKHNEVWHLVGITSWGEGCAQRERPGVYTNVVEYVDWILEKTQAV

B1: corn Hageman factor inhibitor (CHFI), control protein from Zea mays seeds (natural protein, UniProt P01088 29-138, looked up)
chain: SAGTSCVPGWAIPHNPLPSCRWYVTSRTCGIGPRLPWPELKRRCCRELADIPAYCRCTALSILMDGAIPPGPDAQLEGRLEDLPGCPREVQRGFAATLVTEAECNLATIS
notes: the mature protein has 127 amino acids, scissile bond Arg34-Leu35; numbers count on: the mature protein (PDB 1BEA); also called CHFI-ER; wild-type CHFI; source: bought: Enzyme Research Laboratories (from Z. mays seeds)
As to B1, the inhibition constant Ki (usually a dissociation constant, usually derived from enzyme kinetics or from competition with a known ligand) is 5.4 ± 0.2 µM.

B2: CHFI-1245, full-size CHFI with Cys29 substituted by Asp (natural protein, Zea mays, UniProt P01088 29-138, looked up)
chain: SAGTSCVPGWAIPHNPLPSCRWYVTSRTDGIGPRLPWPELKRRCCRELADIPAYCRCTALSILMDGAIPPGPDAQLEGRLEDLPGCPREVQRGFAATLVTEAECNLATIS
notes: numbers count on: the mature protein (PDB 1BEA); also called C29D mutant; source: E. coli Rosetta-Gami 2 DE3, purified (Ni2+-agarose); not shown: His6, N-terminal, kept; C-terminal tag of 1.5 kDa (His tag inferred from pET-28a), C-terminal, kept
In turn, B2 yielded a Ki of 490 ± 110 µM.
